No end group written: not given here. *: point of attachment. FITC = O=C1OC2(c3ccc(O)cc3Oc3cc(O)ccc32)c2ccc(NC(=S)*)cc21; Ahx = NCCCCCC(=O)O
Target: T1, CD13 (human, UniProt P15144 2-967)
T1 construct: whole, on cells; Endogenous CD13 on the cell membrane, detected with PE-labeled anti-human CD13 antibody clone WM-15; also called human CD13
Assay: Example 2 incubated with HT-1080 cells, anti-FITC immunoprecipitation, Western blot with anti-CD13 antibody WM-15
Method: Example 2 (80 μg/400 μL) reacted to HT-1080 cells (40 million cells) at 4° C. for 2 hours. The cells were then washed with PBS, and centrifuged. The centrifuged cells were dissolved in 1,000 μL of IP Lysis/Wash buffer (Thermo Fisher Scientific) with Halt Protease & Phosphatase inhibitor Single-Use Cocktail, ETDA-Free (Thermo Fisher Scientific) (10 μL) at 4° C. for 5 minutes. It was centrifuged at 4° C. for 10 minutes and the supernatant was collected. The supernatant was adjusted to be 1 mg in amount of protein and 80 μL of A/G agarose was added to it. The mixture was stirred at 4° C. for 1 hour and then centrifuged for 1 minute. Thus, a pre-treatment solution was obtained. 10 μg of IgG Fraction Monoclonal Mouse Anti-Fluorescein (FITC) (Jackson ImmunoResearch) or 10 μg of Mouse IgG Isotype Control (Thermo Fisher Scientific) was each added to the pre-treatment solution (1 mg/600 μL), and the mixtures were shaken at 4° C. overnight. Subsequently, 20 μL of A/G agarose was added and the mixtures were shaken at 4° C. for 2 hours. The mixtures were washed three times with the wash buffer described above and 20 μL of 2×Non-reducing Lane Marker Sample Buffer (Thermo Fisher Scientific) was added to the A/G agaroses. […]
The 10% solution used in immunoprecipitation was loaded to the left lane of FIG. 3. […] CD13 was not detected on the right lane, but CD 13 was detected on the center lane.

T1 sequence (P15144 2-967): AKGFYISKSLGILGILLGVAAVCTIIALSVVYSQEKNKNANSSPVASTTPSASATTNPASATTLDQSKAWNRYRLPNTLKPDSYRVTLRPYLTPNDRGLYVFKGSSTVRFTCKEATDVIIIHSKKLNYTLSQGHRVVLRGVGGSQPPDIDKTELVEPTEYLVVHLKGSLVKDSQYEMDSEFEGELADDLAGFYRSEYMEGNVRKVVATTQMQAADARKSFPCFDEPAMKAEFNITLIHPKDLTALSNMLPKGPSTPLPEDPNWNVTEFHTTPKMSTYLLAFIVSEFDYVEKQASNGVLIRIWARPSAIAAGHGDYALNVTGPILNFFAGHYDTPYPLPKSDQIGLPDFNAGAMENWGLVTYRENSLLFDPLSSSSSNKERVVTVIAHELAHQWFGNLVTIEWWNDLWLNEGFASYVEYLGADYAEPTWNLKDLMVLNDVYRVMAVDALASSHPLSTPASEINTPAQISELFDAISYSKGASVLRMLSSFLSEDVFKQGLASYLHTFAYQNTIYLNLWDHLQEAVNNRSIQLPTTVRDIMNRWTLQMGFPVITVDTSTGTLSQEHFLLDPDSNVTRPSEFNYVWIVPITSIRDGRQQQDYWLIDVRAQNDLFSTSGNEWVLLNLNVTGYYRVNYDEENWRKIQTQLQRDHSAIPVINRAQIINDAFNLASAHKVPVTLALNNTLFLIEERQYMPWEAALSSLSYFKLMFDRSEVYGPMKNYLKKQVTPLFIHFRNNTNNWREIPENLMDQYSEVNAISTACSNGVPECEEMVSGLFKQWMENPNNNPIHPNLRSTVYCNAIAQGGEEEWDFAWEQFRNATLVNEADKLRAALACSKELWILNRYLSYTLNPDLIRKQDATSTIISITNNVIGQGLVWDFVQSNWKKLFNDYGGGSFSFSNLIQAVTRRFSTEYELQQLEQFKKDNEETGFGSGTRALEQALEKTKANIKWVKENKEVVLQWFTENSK

{FITC-Ahx}-KDNRGNLLQCVCTGNGRGEWKC (cysteine pairing not given here)
binding result: binds
